These results are taken from article PMC3606321, “Identification and characterization of two distinct PPP1R2 isoforms in human spermatozoa” (BMC Cell Biology, 2013).

The target of assay [1] is purified recombinant PPP1CC1 (UniProt P36873 1-323). Nature of the assay: cell-based or functional assay.
The target of assay [2] is purified recombinant PPP1CC2 (UniProt P36873-2 1-337). The assay is described as follows: cell-based or functional assay.
purified recombinant PPP1CC2, sequence (P36873 other isoform, or with tags, fused parts or gaps): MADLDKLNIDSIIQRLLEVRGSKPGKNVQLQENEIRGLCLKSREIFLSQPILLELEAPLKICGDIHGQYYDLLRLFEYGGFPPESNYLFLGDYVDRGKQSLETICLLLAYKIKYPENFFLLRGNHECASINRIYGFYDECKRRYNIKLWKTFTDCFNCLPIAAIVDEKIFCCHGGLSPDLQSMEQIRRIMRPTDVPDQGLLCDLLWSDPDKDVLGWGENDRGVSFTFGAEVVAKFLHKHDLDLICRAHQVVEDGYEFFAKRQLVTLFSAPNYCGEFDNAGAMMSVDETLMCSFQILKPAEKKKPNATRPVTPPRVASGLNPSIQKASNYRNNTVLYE

purified recombinant PPP1CC1, sequence (P36873 whole entry): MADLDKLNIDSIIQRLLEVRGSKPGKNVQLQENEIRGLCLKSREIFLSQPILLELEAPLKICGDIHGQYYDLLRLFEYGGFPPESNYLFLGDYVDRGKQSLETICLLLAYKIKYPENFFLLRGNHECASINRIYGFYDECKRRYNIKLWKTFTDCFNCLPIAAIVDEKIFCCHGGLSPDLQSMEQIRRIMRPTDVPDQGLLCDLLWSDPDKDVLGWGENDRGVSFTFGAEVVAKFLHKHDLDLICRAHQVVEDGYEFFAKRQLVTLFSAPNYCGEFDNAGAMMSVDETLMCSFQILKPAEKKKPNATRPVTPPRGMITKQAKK

B1: His-PPP1R2P3 (natural protein, human, UniProt Q6NXS1 1-205, looked up)
chain: MAASTASHRPIKGILKNKTSTTSSMVASAEQPRRSVDEELSKKSQKWDEINILATYHPADKGYGLMKIDEPSPPYHSMMGDDEDACRDTETTEAMAPDILAKKLAAAEGLEPKYRIQEQESSGEEDSDLSPEEREKKRQFEMRRKLHYNEGLNIKLARQLISKDLHDDDEDEEMLETADGESMNTEESNQGSTPSDQQQNKLRSS
With B1, the “IC50 of inhibition of PPP1CC1 in the phosphorylase phosphatase assay ([32P]phosphorylase a as substrate)” value in assay [1] was 0.73 nM. In addition, in assay [2], the “IC50 of inhibition of PPP1CC2 in the phosphorylase phosphatase assay ([32P]phosphorylase a as substrate)” value is 0.09 nM.
